This note sets out measurements from article PMC8532503 (Science (New York, N.Y.), 2021).

For the assay, the target named is Full-length ectodomain of human LRP1 (LRP1-ECD) (human, UniProt Q07954-1 20-4414). Description: SEC. (SEC sorts molecules by how far they enter the pores of the column.)
Sequence of Full-length ectodomain of human LRP1 (LRP1-ECD) (Q07954 20-4414): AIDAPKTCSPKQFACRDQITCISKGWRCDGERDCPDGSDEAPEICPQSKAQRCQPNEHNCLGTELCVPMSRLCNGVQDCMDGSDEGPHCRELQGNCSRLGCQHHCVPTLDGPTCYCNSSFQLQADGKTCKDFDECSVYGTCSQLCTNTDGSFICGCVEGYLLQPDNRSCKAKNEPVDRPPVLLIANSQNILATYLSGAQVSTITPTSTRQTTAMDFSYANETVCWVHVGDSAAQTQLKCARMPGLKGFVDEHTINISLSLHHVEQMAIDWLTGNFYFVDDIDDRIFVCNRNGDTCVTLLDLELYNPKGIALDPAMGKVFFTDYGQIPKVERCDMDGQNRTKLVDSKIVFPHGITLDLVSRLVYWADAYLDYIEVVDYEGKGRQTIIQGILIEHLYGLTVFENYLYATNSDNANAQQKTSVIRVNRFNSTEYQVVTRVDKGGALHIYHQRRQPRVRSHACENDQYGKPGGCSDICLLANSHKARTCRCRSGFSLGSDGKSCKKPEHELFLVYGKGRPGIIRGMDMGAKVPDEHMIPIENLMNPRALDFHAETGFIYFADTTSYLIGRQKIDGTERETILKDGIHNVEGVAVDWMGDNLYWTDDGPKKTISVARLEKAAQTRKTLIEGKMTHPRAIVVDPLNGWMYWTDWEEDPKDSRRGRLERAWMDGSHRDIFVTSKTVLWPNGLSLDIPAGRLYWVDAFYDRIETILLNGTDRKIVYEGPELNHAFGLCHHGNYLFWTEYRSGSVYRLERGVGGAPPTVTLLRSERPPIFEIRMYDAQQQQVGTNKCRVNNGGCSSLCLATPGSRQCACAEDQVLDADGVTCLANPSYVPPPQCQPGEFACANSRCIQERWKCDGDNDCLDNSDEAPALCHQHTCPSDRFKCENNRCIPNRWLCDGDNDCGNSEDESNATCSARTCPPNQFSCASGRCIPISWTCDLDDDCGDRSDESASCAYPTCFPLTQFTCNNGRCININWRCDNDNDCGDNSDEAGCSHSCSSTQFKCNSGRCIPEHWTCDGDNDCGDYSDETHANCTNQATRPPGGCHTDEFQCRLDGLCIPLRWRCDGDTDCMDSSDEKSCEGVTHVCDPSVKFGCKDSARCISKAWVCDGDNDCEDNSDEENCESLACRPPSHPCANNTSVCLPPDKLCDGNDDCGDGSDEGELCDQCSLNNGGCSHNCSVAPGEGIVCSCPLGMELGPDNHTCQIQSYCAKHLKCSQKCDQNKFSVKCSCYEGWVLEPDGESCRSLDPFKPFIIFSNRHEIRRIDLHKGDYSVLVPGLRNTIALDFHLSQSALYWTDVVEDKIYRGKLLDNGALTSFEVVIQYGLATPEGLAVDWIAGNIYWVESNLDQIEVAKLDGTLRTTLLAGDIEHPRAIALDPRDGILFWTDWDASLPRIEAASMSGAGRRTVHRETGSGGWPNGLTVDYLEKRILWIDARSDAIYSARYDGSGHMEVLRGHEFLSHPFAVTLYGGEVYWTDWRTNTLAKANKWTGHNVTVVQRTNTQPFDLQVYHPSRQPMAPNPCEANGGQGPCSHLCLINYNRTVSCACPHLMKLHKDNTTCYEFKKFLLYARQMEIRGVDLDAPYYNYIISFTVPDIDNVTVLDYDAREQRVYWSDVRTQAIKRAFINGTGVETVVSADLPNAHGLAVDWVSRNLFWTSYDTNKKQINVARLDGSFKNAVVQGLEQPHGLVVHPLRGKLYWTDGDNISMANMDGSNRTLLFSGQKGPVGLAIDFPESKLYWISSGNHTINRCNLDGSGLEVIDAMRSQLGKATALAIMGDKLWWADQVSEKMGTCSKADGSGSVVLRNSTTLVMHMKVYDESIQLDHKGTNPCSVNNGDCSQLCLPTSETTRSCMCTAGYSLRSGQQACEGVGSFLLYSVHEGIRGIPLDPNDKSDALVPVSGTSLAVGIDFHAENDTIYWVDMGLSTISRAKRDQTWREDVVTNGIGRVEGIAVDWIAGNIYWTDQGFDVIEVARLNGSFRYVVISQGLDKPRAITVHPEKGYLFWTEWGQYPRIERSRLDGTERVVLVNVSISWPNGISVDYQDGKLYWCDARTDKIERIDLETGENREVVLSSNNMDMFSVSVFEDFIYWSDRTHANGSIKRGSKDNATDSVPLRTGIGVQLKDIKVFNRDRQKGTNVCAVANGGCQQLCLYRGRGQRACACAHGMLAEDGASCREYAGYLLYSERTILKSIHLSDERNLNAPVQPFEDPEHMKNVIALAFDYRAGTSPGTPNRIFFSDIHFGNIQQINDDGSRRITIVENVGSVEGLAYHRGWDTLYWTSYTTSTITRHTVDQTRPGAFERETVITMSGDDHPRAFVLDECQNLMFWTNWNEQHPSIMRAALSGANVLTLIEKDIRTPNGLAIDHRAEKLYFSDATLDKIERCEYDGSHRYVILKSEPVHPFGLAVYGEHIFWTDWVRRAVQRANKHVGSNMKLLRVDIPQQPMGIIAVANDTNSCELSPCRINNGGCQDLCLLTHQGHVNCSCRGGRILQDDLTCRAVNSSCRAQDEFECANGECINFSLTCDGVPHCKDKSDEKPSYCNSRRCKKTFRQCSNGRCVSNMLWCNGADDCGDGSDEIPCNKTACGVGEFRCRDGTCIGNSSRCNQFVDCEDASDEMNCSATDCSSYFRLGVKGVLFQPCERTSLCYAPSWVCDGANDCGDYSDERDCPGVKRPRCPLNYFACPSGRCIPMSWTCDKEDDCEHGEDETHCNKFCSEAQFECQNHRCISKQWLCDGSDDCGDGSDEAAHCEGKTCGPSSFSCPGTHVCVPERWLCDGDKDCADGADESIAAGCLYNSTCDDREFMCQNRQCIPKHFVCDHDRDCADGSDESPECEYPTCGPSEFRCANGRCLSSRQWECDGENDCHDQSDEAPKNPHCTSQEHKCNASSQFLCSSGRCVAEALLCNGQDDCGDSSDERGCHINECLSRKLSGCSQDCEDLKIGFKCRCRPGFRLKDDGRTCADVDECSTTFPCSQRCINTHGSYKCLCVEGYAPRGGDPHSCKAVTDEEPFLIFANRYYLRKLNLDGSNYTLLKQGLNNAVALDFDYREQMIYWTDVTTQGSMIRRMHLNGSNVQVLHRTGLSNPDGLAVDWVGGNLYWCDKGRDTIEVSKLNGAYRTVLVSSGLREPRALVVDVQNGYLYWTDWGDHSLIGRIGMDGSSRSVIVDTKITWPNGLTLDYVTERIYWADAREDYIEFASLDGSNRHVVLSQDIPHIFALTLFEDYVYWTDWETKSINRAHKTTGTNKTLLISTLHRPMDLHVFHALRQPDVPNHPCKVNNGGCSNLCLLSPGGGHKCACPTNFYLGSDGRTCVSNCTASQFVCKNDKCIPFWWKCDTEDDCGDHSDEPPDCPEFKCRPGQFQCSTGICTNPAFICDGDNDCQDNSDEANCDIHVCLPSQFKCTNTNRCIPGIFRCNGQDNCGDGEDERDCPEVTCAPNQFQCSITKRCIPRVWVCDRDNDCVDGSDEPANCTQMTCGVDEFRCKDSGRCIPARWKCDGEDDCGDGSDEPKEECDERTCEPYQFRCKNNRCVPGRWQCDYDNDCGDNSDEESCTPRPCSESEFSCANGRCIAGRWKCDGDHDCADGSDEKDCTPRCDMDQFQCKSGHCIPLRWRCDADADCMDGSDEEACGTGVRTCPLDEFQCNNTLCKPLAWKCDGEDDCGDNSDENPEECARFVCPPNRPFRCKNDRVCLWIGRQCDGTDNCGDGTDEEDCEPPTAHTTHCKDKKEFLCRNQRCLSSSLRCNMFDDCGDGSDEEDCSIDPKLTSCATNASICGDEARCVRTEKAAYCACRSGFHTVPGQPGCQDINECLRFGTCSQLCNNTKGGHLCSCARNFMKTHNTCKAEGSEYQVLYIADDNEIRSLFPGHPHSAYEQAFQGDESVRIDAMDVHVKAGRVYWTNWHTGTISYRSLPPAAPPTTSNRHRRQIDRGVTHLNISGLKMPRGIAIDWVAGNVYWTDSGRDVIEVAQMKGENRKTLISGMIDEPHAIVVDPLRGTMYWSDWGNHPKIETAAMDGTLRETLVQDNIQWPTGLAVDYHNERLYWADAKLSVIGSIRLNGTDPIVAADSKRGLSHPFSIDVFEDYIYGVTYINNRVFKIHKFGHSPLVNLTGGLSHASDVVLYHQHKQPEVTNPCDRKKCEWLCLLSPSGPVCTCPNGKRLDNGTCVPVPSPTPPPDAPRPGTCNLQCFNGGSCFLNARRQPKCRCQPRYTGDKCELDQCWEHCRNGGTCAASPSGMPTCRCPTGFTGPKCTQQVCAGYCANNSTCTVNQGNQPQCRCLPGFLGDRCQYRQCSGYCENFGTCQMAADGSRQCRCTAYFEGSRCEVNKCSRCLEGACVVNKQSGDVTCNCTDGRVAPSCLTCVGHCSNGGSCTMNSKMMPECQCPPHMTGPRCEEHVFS

B1: Recombinant mouse SAA1 (purified SAA1, tag state not stated) (natural protein, UniProt P05366 20-122, looked up)
chain: GFFSFVHEAFQGAGDMWRAYTDMKEANWKNSDKYFHARGNYDAAQRGPGGVWAAEKISDGREAFQEFFGRGHEDTIADQEANRHGRSGKDPNYYRPPGLPDKY
Regarding B1, the binding result is “binds”.
